According to article PMC6274866:

Key:
[1] = molecular target: STIM2-2β-OASF (residues 238–504 containing the naturally occurring VAASYLIQ insertion after E383) (human); assay: SEC-MALS; 1 mg/mL protein injected on Superdex 200 Increase 10/300 GL at 10 °C; 20 mM TRIS, 300 mM NaCl, 1 mM DTT, pH 8.0; without CaCl2; stoichiometric ratio = MALS molecular weight / theoretical monomer mass
[2] = molecular target: STIM2-2β-OASF (residues 238–504 containing the naturally occurring VAASYLIQ insertion after E383) (human); assay: SEC-MALS; 1 mg/mL protein injected on Superdex 200 Increase 10/300 GL at 10 °C; 20 mM TRIS, 300 mM NaCl, 1 mM DTT, pH 8.0; with 25 mM CaCl2; stoichiometric ratio = MALS molecular weight / theoretical monomer mass

Chain of STIM2-2β-OASF (residues 238–504 containing the naturally occurring VAASYLIQ insertion after E383) (domain or fragment) (Q9P246 238-504): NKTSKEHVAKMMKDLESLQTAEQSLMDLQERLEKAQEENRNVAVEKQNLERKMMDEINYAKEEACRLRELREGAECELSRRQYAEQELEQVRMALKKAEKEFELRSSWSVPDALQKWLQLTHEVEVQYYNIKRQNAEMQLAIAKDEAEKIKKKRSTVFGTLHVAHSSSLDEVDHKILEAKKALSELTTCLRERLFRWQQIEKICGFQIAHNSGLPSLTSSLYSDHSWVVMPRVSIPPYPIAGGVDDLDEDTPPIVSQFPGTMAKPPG

stoichiometry N [1]: 1.96
stoichiometry N [2]: 1.97
Substance: STIM2-2β-OASF (residues 238–504 containing the naturally occurring VAASYLIQ insertion after E383) (domain or fragment)
